# Data from US8252764B2, “Compositions and methods of use of targeting peptides against placenta and adipose tissues” (priority 2000, dated 2012).
# Bridge positions count the residues as written; N and C are the ends. Square brackets hold non-standard residues; d marks the D form. Ends that are not written are not given here. Peptide text beside a SMILES is read from it. * marks the point of attachment. Cbz = O=C(OCc1ccccc1)*; CH2F = FC*
# Legend:
# HUVEC cells = assay: Apoptosis assay in HUVEC (propidium iodide, chromatin fragmentation); type: cell-based, human
# Experimental: FIG. 26. Penetratin peptide chimera binding to the β5 cytoplasmic domain induces programmed cell death. 10^6 HUVEC cells were harvested in complete media and 15 μM penetratin peptide chimeras were added to the cells. […] (a) Profile obtained with starved cells after 24 h. (b) Confluent cells in complete media. (c) 15 μM of penetratin after four hours. (d) 15 μM of VISY-penetratin chimera after four hours.
# FIG. 30. Chimeric peptide containing VISY peptide linked to penetratin (antennapedia) induces apoptosis. VISY induced apoptosis was inhibited by addition of a caspase inhibitor (zVAD).
# Approximately 1×10^6 cells were harvested in complete media and 15 AM of peptide added for 4, 8, or 12 h. The cellswere then washed in PBS and resuspended in 0.5 ml propidium iodide solution (50 μg/ml PI, 0.1% Triton X-100, 0.1% sodium citrate). After a 24-h incubation at 4° C., cells were counted with a XL Coulter (Coulter Corporation) with a 488-nm laser; 12,000 cells were counted for each histogram, and cell cycle distributions were analyzed with Multicycle program.
# Approximately 1×10^6 cells were harvested in complete medium, and 15 μM of peptide was added for 4, 8, or 12 hours. The cells were then washed in PBS and resuspended in 0.5 ml propidium iodide solution (50 μg/ml PI, 0.1% Triton X-100, 0.1% sodium citrate). After a 24-h incubation at 4° C., the cells were counted with an XL Coulter (Coulter Corporation) with a 488 nm laser; 12,000 cells were counted for each histogram, and cell cycle distributions were analyzed with the Multicycle program.
# 10^6 HUVEC were treated with 15 μM of VISY antennapedia (penetratin) chimera or 15 μM of antennapedia peptide (pentratin) alone for 2-4 hours and chromatin fragmentation was analyzed by electrophoresis in an agarose gel.
# [1] = target: T1, β5 integrin cytoplasmic domain (Homo sapiens, UniProt P18084); assay: Binding of Fyn-phosphorylated phage to β5 cytoplasmic domain; conditions: for Phos/Unphos: Fyn-phosphorylated versus unphosphorylated phage; for β3 or β5/BSA / β3 or β5/GST: X4YX4 library phosphorylated with Fyn
# T1 construct: screenings involving the β5 cytoplasmic domain fusion protein
# T1 sequence (P18084 743-799 limits assumed): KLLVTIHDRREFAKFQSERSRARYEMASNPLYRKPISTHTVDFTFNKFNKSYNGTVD
# Experimental: (§1) Phosphorylation of peptide libraries with src family protein kinases (Fyn, c-Src, Lyn, and Syc) and serine/threonine kinases such as a MAP kinase were performed as described previously (Schmitz et al., 1996; Dente et al., 1997; Gram et al., 1997). Briefly, phage particles were collected from culture supernatants by double precipitation with 20% polyethylene glycol 8000 in 2.5 M NaCl. Particles were dissolved at 10^12 particles/ml. Purified phage (10 μl) were incubated for 3 hours at room temperature with different concentrations (35 to 3,500 units) of protein kinases in a reaction buffer volume of 50 μl. The reaction mixtures were transferred to tubes containing 10 μg of agarose-conjugated anti-P-Tyr, anti-P-Ser, or anti-P-Thr monoclonal antibodies to select phage displaying phosphorylated peptides. Bound phage were eluted by washing the column with 0.3 ml of elution buffer (0.1 M NaCl/glycine/1 mg/ml BSA, pH 2.35). The eluates were neutralized with 2 M Tris-base and incubated with 2 ml of a mid-log bacteria culture. Aliquots of 20 μl were removed for plating, and phage were harvested as described. The phosphorylation-selection step was repeated. Phosphorylated peptides binding to β3 and β5 cytoplasmic domains were analyzed as described in the previous section.
# (§2) Randomly selected clones from rounds III and IV were sequenced from a X4YX4 phosphorylated library with Fyn. Amino acid sequences of the phagemid encoded peptides were deduced from nucleotide sequences. […] The ratio of binding to β3 or β5 was calculated by dividing the number of β3 or β5 colonies by GST or BSA colonies found after panning. The ratio of binding to β3 or β5 with phosphorylated phage by Fyn versus unphosphorylated phage was calculated by dividing the number of colonies found after the panning.
# (§3) The effect of phosphorylation on the affinity and specificity of the cytoplasmic domain-binding was examined. Phage displaying the β3 and β5 cytoplasmic domain-binding peptides were phosphorylated in vitro as previously described (Schmitz et al., 1996; Dente et al., 1997; Gram et al., 1997), using Fyn kinase. Specific phosphorylation of the tyrosine-containing peptide on the surface of the phage was confirmed by using ^32P-gamma […] in the kinase reaction and by separating the phage pIII protein by SDS-PAGE.
# [2] = target: T2, β3 integrin cytoplasmic domain (Homo sapiens, UniProt P05106); assay: Binding of Fyn-phosphorylated phage to β3 cytoplasmic domain; conditions: for Phos/Unphos: Fyn-phosphorylated versus unphosphorylated phage; for β3 or β5/BSA / β3 or β5/GST: X4YX4 library phosphorylated with Fyn
# T2 sequence (P05106 742-788 limits assumed): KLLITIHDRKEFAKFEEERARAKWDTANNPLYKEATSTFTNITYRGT
# Experimental: as §1, §2, §3
# SK-RC-49/APA cells = assay: Phage binding specificity assay on SK-RC-49/APA cells; type: cell-based; conditions: phage displaying the peptide insert, data not shown
# Experimental: The cell binding assay was performed with an input of 10^9 TU as described for the cell panning. The specificity was confirmed by adding […] (SEQ ID NO:56) peptide to the binding medium in increasing concentrations. For phage binding on immunocaptured APA, wells were blocked for 1 h at room temperature with PBS/3% BSA and incubated with 10^9 TU for 1 h at room temperature in 50 μl PBS/3% BSA. After eight washes in PBS/1% BSA/0.01% Tween-20 and two washes in PBS, phage were rescued by adding 200 μl of exponentially growing K91Kan E. coli. Each experiment was repeated at least three times.
# fat vasculature = type: in vivo
# Experimental: FIG. 10. Treatment of mouse obesity with fat vasculature-targeted apoptosis. Three cohorts (n=3) of (A) high-fat cafeteria diet-fed obese c57bl/6 mice; or (B) regular diet-fed old (˜1 year) c57bl/6 mice were each subcutaneously injected daily with equimolar amounts of the indicated peptides. Mouse body mass measurement was taken on days when injections were performed (injections were skipped on days for which body mass measurement is not shown). Error bars are SEM for the measurements in three mice.
# FIG. 11. Fat resorption induced by fat vasculature-targeted apoptosis. (A) Representative high-fat cafeteria diet-fed obese c57bl/6 mice; (B) and (C) representative regular diet-fed old (˜1 year) c57bl/6 mice; or (D) epididymal fat from representative regular diet-fed old c57bl/6 mice from the experiment described in FIG. 10. Whole mice (A), subcutaneous fat (B), peritoneal fat (C) and total epididymal fat (D) from the corresponding indicated treatments were photographed 1 week (A) or 3 weeks (B), (C) and (D) after the beginning of subcutaneous injections. The injected peptides were […] (SEQ ID NO:22) linked to (KLAKLAK)2 (SEQ ID NO:1) (left column), CARAC (SEQ ID NO:12) linked to (KLAKLAK)2 (SEQ ID NO:1) (middle column), and […] (SEQ ID NO:22) co-administered with (KLAKLAK)2 (SEQ ID NO:1) (right column).
# FIG. 12. Destruction of fat blood vessels as a result of targeted apoptosis. (A) Tunnel immunohistochemistry, (B) secondary antibody only negative tunnel staining control and (C) and (D) hematoxylin/eosin staining of white fat of mice. (A), (B) and (C) Mice were treated with […] (SEQ ID NO:22) linked to (KLAKLAK)2 (SEQ ID NO:1). (D) Mice were treated with CARAC (SEQ ID NO:12) linked to (KLAKLAK)2 (SEQ ID NO:1). Apoptosis (arrows, (A)) and necrosis/lymphocyte infiltration (arrows, (C)) in response to […] (SEQ ID NO:22) linked to (KLAKLAK)2 (SEQ ID NO:1) treatment are indicated. Bar: 10 μm.
# Stocks of […] (SEQ ID NO:22) fused to (KLAKLAK)2 (SEQ ID NO:1); (KLAKLAK)2 (SEQ ID NO:1) alone; CARAC (SEQ ID NO:12) fused to (KLAKLAK)2 (SEQ ID NO:1); and […] (SEQ ID NO:22) peptide were chemically synthesized, cyclized using the terminal cysteines and HPLC-purified to >90% (Anaspec). Lyophilized peptides were dissolved in DMSO to a concentration of 65 mM to make stock solutions. A total of 150 μl of 0.65 mM peptide solution in PBS was subcutaneously injected daily in the back of C57BL/6 males, after body mass was measured each day. High-fat cafeteria diet for obesity induction (TD97366: 25.4% fat, 21.79% protein, 38.41% carbohydrate) was purchased from Harlan Teklad. Mice were pre-fed with TD97366 prior to the initiation of treatment with adipose targeting peptides to induce diet-related obesity.
# [3] = target: T3, prohibition receptor protein complex (Mus musculus, UniProt P67778); assay: Adipose receptor protein binding and immunoprecipitation
# T3 construct: from tissue; host or cells: mouse adipose tissue extract
# T3 sequence (P67778 2-272 limits assumed): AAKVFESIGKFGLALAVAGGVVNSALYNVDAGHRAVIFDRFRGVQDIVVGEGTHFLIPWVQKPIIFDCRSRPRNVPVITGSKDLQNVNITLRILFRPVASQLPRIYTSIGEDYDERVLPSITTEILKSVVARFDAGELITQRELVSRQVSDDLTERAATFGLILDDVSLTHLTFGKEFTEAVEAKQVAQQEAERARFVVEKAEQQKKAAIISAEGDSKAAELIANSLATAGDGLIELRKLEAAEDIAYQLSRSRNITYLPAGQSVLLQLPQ
# Experimental: A band of approximately 35,000 Daltons (35 kDa) was isolated from mouse adipose tissue extract that bound to […] (SEQ ID NO:22) conjugated to (KLAKLAK)2 (SEQ ID NO:1). […] The 35 kDa band was analyzed by mass spectrometry, which identified three proteins present in the sample.
# The three proteins included predominately a B cell receptor associated protein (prohibition), apolipoprotein E, and the voltage dependent anion channel (VDAC). Further studies were performed by immunoprecipitation, using either […] (SEQ ID NO:22) or CARAC (SEQ ID NO:12) conjugated to (KLAKAK)2 (SEQ ID NO:1) and precipitating with commercially available antibodies.
# It is unknown whether those proteins bound to the CARAC (SEQ ID NO:12) moiety or to (KLAKAK)2 (SEQ ID NO:1).
compound,measurement,setting,value
"COC(=O)C[C@H](NC(=O)[C@H](C)NC(=O)[C@@H](NC(=O)OCc1ccccc1)C(C)C)C(=O)CF [zVAD, reference compound] (Cbz-Val-Ala-Asp(OMe)-CH2F)",inhibition of VISY chimeric peptide induced apoptosis,HUVEC cells; added to the media at the same time as the VISY chimeric peptide,up to 70%
TMLRYTVRL,Phos/Unphos,[1],14.3
same,β3 or β5/BSA,[1],2.2
same,β3 or β5/GST,[1],3.4
GGGSYRHVE,Phos/Unphos,[2],13.2
same,β3 or β5/BSA,[2],5.3
same,β3 or β5/GST,[2],1.5
CGTGCAVECEVVC,selective binding of phage to SK-RC-49/APA cells,SK-RC-49/APA cells,no selective binding
CC(C)C[C@@H](NC(=O)[C@@H](CCCCN)NC(=O)CNC(=O)CNC(=O)[C@@H]1CSSC[C@H](N)C(=O)N[C@@H](CCCCN)C(=O)NCC(=O)NCC(=O)N[C@@H](CCCNC(=N)N)C(=O)N[C@@H](C)C(=O)N[C@@H](CCCCN)C(=O)N[C@@H](CC(=O)O)C(=O)N1)C(=O)N[C@H](C)C(=O)N[C@H](CCCCN)C(=O)N[C@H](CC(C)C)C(=O)N[C@H](C)C(=O)N[C@H](CCCCN)C(=O)N[C@H](CCCCN)C(=O)N[C@H](CC(C)C)C(=O)N[C@H](C)C(=O)N[C@H](CCCCN)C(=O)N[C@H](CC(C)C)C(=O)N[C@H](C)C(=O)N[C@H](CCCCN)C(=O)O (H-CKGGRAKDCGG[dK][dL][dA][dK][dL][dA][dK][dK][dL][dA][dK][dL][dA][dK]-OH; disulfide 1-9),mortality in genetically obese mice,"fat vasculature; genetically obese mice, not in normal obese mice",occasionally observed to result in mortality within a few days of injection
same,abnormalities in other organs,"fat vasculature; mouse, in vivo",No abnormalities in other organs
MLLGYRFEK,Phos/Unphos,[2],2.5
same,β3 or β5/BSA,[2],2.7
same,β3 or β5/GST,[2],3.5
"VISY-penetratin chimera: VVISYSMPD (β5 cytoplasmic domain-binding peptide) coupled to penetratin, plus a biotin moiety (VVISYSMPDRQIKIWFQNRRMKWKK; also: biotin moiety, place not given here)",induction of apoptosis (chromatin fragmentation),"HUVEC cells; 10^6 HUVEC, 15 μM, 2-4 hours",induction of apoptosis
same,induction of apoptosis (propidium iodide staining),"HUVEC cells; HUVEC, 15 μM, four hours",induction of apoptosis
CKGGRAKDC,enrichment of prohibition receptor protein complex in precipitated fraction compared to CARAC precipitated fraction,"[3]; immunoprecipitation, SDS-PAGE, data not shown",over a ten-fold enrichment
CARAC-(KLAKLAK)2: control CARAC (SEQ ID NO:12) fused to (KLAKLAK)2 (SEQ ID NO:1) (CARACKLAKLAKKLAKLAK) [reference compound],binding of 35 kDa band from mouse adipose tissue extract,[3]; data not shown,much less binding
same,"binding to VDAC, prohibition and apolipoprotein E",[3]; immunoprecipitation,low levels of non-specific binding to all three proteins
same,histopathological analysis of white fat,"fat vasculature; TUNEL, hematoxylin/eosin",no vascular apoptosis or fat necrosis
same,body mass change (in words),"fat vasculature; high-fat cafeteria diet-fed obese C57BL/6 mice, equimolar amount, sc daily",did not show a significant body mass decrease
TLRKYFHSS,Phos/Unphos,[1],3.8
same,β3 or β5/BSA,[1],15.2
same,β3 or β5/GST,[1],3.8
TMLRYFMFP,Phos/Unphos,[1],4.2
same,β3 or β5/BSA,[1],3.8
same,β3 or β5/GST,[1],2.3
